Measurements as given in publication PMC10533412 (2023).
Where a chain is given by its changes, count along the chain named.

B1: BTN2A1 B30.2 (protein)
chain: ELQVKEKLQEELRWRRTFLHAVDVVLDPDTAHPDLFLSEDRRSVRRCPFRHLGESVPDNPERFDSQPCVLGRESFASGKHYWEVEVENVIEWTVGVCRDSVERKGEVLLIPQNGFWTLEMHKGQYRAVSSPDRILPLKESLCRVGVFLDYEAGDVSFYNMRDRSHIYTCPRSAFSVPVRPFFRLGCEDSPIFICPALTGANGV
modifications: DMAPP
B2: BTN2A1 B30.2 domain (domain or fragment)
chain: EELRWRRTFLHAVDVVLDPDTAHPDLFLSEDRRSVRRCPFRHLGESVPDNPERFDSQPCVLGRESFASGKHYWEVEVENVIEWTVGVCRDSVERKGEVLLIPQNGFWTLEMHKGQYRAVSSPDRILPLKESLCRVGVFLDYEAGDVSFYNMRDRSHIYTCPRSAFSVPVRPFFRLGCEDSPIFICPALTGANGVTVPEEGLTLHRVGTHQSL
modifications: limits from PDB 5ZXK/8JYE entity without the C-terminal LEHHHHHH; paper number minus 295 = entity position
B3: BTN2A1 B30.2 (protein)
chain: B1 chain
modifications: IPP
B4: BTN2A1 B30.2 (protein)
chain: B1 chain with R45H
B5: BTN2A1 B30.2 (protein)
chain: B1 chain
modifications: HMBPP

Assays:
BTN3A1 B30.2 = BTN3A1 B30.2 (Homo sapiens, UniProt O00481); assay: ITC
Sequence of BTN3A1 B30.2 (O00481 319-513): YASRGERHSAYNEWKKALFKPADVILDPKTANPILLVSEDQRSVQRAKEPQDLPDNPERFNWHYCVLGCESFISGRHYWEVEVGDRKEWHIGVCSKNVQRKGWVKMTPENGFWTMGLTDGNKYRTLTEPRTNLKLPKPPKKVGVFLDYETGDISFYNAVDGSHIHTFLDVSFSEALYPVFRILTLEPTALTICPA

BTN3A1 B30.2 domain = BTN3A1 B30.2 domain (human, UniProt O00481 328-513); assay: ITC; with HMBPP
Sequence of BTN3A1 B30.2 domain (O00481 other isoform, or with tags, fused parts or gaps): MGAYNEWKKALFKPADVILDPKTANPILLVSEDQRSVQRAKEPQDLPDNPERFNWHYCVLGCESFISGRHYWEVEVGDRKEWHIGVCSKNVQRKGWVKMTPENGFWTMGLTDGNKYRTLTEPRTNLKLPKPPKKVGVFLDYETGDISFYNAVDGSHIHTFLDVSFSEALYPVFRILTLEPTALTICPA

BTN3A3 B30.2 = BTN3A3 B30.2 (Homo sapiens, UniProt O00478); assay: ITC
Sequence of BTN3A3 B30.2 (O00478 319-521): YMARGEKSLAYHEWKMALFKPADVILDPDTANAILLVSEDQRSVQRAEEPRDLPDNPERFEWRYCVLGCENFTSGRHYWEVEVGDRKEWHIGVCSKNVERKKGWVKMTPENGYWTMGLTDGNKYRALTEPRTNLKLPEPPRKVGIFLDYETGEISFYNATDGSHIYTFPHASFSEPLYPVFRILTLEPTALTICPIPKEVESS

| Binder | Kd (BTN3A1 B30.2) [µM] | other results |
| --- | --- | --- |
| B1 | 12.3 |  |
| B2 |  | Kd (BTN3A1 B30.2 domain): 600 nM |
| B3 | 155 |  |
| B4 |  | Kd (BTN3A3 B30.2): 460 nM |
| B5 | 0.611 |  |
